Results reported in PMC9669019, “Molecular basis for integrin adhesion receptor binding to p21-activated kinase 4 (PAK4)” (Communications Biology, 2022).
Positions count from the first letter of the chain named. Numbers in names are those of the source.

Key:
integrin β5 tail [1] = assay: Pull-down of wild-type and mutated GFP-PAK4 catalytic domain by wild-type integrin β5 tail; format: binding
Procedure: (§1) Pull down assays were performed as previously described[45],[60]. Briefly, constructs encoding an N-terminal His-tag followed by a helical region, a 4-glycine spacer, and an integrin cytoplasmic tail sequence were produced in BL21 (DE3) bacteria. Following bacterial cell lysis, recombinant protein was bound to Ni-NTA beads, eluted with imidazole, dialyzed and further purified by reverse-phase high-performance liquid chromatography (HPLC). Purified protein was lyophilized for storage and was used to coat fresh Ni-NTA beads to generate an affinity matrix for pull-down assays.
(§2) For pulldowns from cell lysates, human PAK4 constructs were generated in pEGFP (Takara Bio Inc.) by PCR amplification from a pLX304 PAK4 isoform 1 (Uniprot O96013-1) construct kindly provided by Michael Calderwood (Dana-Farber Cancer Institute). Mutations and deletions were introduced by QuikChange mutagenesis or PCR amplification. Chinese hamster ovary (CHO) cells were seeded on 10 cm tissue culture dishes and transiently transfected with GFP-tagged constructs using polyethylenimine (Polysciences). After 24 h, cells were harvested and lysed in buffer X (1 mM NaVO4, 50 mM NaF, 40 mM sodium pyrophosphate, 50 mM NaCl, 150 mM sucrose, 10 mM Pipes, pH 6.8) containing 0.5% Triton X-100, 0.2% deoxycholic acid, and complete EDTA-free protease inhibitor mixture (Roche, Indianapolis, IN, USA) for 15 min at 4 °C. After clarification by centrifugation, lysate was diluted in buffer X-T (buffer X with 0.05% Triton X-100) and incubated with His-tagged integrin tails coupled to Ni-NTA beads for 4 h with rocking at 4 °C. For experiments using purified PAK4cat, protein was incubated with His-tagged integrin tails coupled to Ni-NTA beads in buffer X-T for 2 h with rocking at 4 °C. Beads were then washed three times with buffer X-T, and bound proteins were fractionated by reducing SDS-PAGE and analyzed by immunoblotting with anti-GFP antibodies (600-101-215, Rockland). Immunoblots were imaged on an Odyssey IR imaging system (Li-Cor; Lincoln, NE, USA) and analyzed using Image Studio Lite (Li-Cor; Lincoln, NE, USA). For the quantification of binding from immunoblots, the fluorescence intensity of the band corresponding to bound material was quantified as a fraction of the fluorescence of the input material band for each condition. Loading of integrin tails was assessed by Coomassie Blue staining. Data were analyzed using GraphPad Prism.

integrin β5 tail [2] = assay: Pull-down of wild-type and mutated full-length GFP-PAK4 by wild-type integrin β5 tail; format: binding
Procedure: as §1, §2

[3] = Figure 4G source data, PAK4 catalytic domain, replicate 1
[4] = Figure 4H source data, full-length PAK4, experiment row r4

B1: Q358A: GFP-tagged PAK4 Q358A mutant; catalytic domain (Fig 4G) or full-length (Fig 4H) (protein, UniProt O96013 1-591, looked up, variant Q358A)
Serine/threonine-protein …: MFGKRKKRVEISAPSNFEHRVHTGFDQHEQKFTGLPRQWQSLIEESARRPKPLVDPACITSIQPGAPKTIVRGSKGAKDGALTLLLDEFENMSVTRSNSLRRDSPPPPARARQENGMPEEPATTARGGPGKAGSRGRFAGHSEAGGGSGDRRRAGPEKRPKSSREGSGGPQESSRDKRPLSGPDVGTPQPAGLASGAKLAAGRPFNTYPRADTDHPSRGAQGEPHDVAPNGPSAGGLAIPQSSSSSSRPPTRARGAPSPGVLGPHASEPQLAPPACTPAAPAVPGPPGPRSPQREPQRVSHEQFRAALQLVVDPGDPRSYLDNFIKIGEGSTGIVCIATVRSSGKLVAVKKMDLRKQARRELLFNEVVIMRDYQHENVVEMYNSYLVGDELWVVMEFLEGGALTDIVTHTRMNEEQIAAVCLAVLQALSVLHAQGVIHRDIKSDSILLTHDGRVKLSDFGFCAQVSKEVPRRKSLVGTPYWMAPELISRLPYGPEVDIWSLGIMVIEMVDGEPPYFNEPPLKAMKMIRDNLPPRLKNLHKVSPSLKGFLDRLLVRDPAQRATAAELLKHPFLAKAGPPASIVPLMRQNRTR
modifications: GFP tag
- Binding to wild-type integrin β5 tail, normalized to cat-WT (integrin β5 tail [1]; [3]): 0.8373
- Binding to wild-type integrin β5 tail, normalized to cat-WT (integrin β5 tail [1]; Figure 4G, replicate 2): 0.4614
- Binding to wild-type integrin β5 tail, normalized to cat-WT (integrin β5 tail [1]; Figure 4G, replicate 3): 0.71
- Binding to wild-type integrin β5 tail, normalized to cat-WT (integrin β5 tail [1]; Figure 4G, replicate 4): 1.075
- Binding to wild-type integrin β5 tail, normalized to cat-WT (integrin β5 tail [1]; Figure 4G, replicate 5): 0.4677
- Binding to wild-type integrin β5 tail, normalized to cat-WT (integrin β5 tail [1]; Figure 4G, replicate 6): 1.0032
- Binding to wild-type integrin β5 tail, normalized to cat-WT (integrin β5 tail [1]; Figure 4G, replicate 7): 1.283
- Binding to wild-type integrin β5 tail, normalized to cat-WT (integrin β5 tail [1]; Figure 4G, replicate 8): 1.183
- Binding to wild-type integrin β5 tail, normalized to cat-WT (integrin β5 tail [1]; Figure 4G, replicate 9): 0.828
- Effect of PAK4 mutation on pull-down by integrin β5 (integrin β5 tail [1]; catalytic domain (Fig. 4g) and full-length PAK4 (Fig. 4h)): no effect on binding
- Binding to wild-type integrin β5 tail, normalized to FL-WT (integrin β5 tail [2]; [4]): 0.221
- Binding to wild-type integrin β5 tail, normalized to FL-WT (integrin β5 tail [2]; Figure 4H, experiment row r5): 0.9415
- Binding to wild-type integrin β5 tail, normalized to FL-WT (integrin β5 tail [2]; Figure 4H, experiment row r8): 0.58
- Binding to wild-type integrin β5 tail, normalized to FL-WT (integrin β5 tail [2]; Figure 4H, experiment row r10): 3.01
- Binding to wild-type integrin β5 tail, normalized to FL-WT (integrin β5 tail [2]; Figure 4H, experiment row r17): 1.265
- Binding to wild-type integrin β5 tail, normalized to FL-WT (integrin β5 tail [2]; Figure 4H, experiment row r18): 0.66
- Binding to wild-type integrin β5 tail, normalized to FL-WT (integrin β5 tail [2]; Figure 4H, experiment row r19): 1.25

B2: D444R: GFP-tagged PAK4 D444R mutant; catalytic domain (Fig 4G) or full-length (Fig 4H) (protein, UniProt O96013 1-591, looked up, variant D444R)
Serine/threonine-protein …: B1 Serine/threonine-protein … with A358Q, D444R
modifications: GFP tag; catalytic domain or full-length
- Binding to wild-type integrin β5 tail, normalized to cat-WT (integrin β5 tail [1]; [3]): 0.1667
- Binding to wild-type integrin β5 tail, normalized to cat-WT (integrin β5 tail [1]; Figure 4G, replicate 2): 0.1098
- Binding to wild-type integrin β5 tail, normalized to cat-WT (integrin β5 tail [1]; Figure 4G, replicate 3): 2.475e-5
- Binding to wild-type integrin β5 tail, normalized to cat-WT (integrin β5 tail [1]; Figure 4G, replicate 4): 0.334
- Binding to wild-type integrin β5 tail, normalized to cat-WT (integrin β5 tail [1]; Figure 4G, replicate 5): 0.004908
- Binding to wild-type integrin β5 tail, normalized to cat-WT (integrin β5 tail [1]; Figure 4G, replicate 6): 0.1746
- Binding to wild-type integrin β5 tail, normalized to cat-WT (integrin β5 tail [1]; Figure 4G, replicate 7): 0.115
- Binding to wild-type integrin β5 tail, normalized to FL-WT (integrin β5 tail [2]; [4]): 0.011
- Binding to wild-type integrin β5 tail, normalized to FL-WT (integrin β5 tail [2]; Figure 4H, experiment row r7): 0.517
- Binding to wild-type integrin β5 tail, normalized to FL-WT (integrin β5 tail [2]; Figure 4H, experiment row r13): 0.253
- Binding to wild-type integrin β5 tail, normalized to FL-WT (integrin β5 tail [2]; Figure 4H, experiment row r14): 0.329
- Binding to wild-type integrin β5 tail, normalized to FL-WT (integrin β5 tail [2]; Figure 4H, experiment row r15): 0.208

B3: E512A: GFP-tagged PAK4 E512A mutant; catalytic domain (Fig 4G) or full-length (Fig 4H) (protein, UniProt O96013 1-591, looked up, variant E512A)
Serine/threonine-protein …: B1 Serine/threonine-protein … with A358Q, E512A
modifications: GFP tag; catalytic domain or full-length
- Binding to wild-type integrin β5 tail, normalized to cat-WT (integrin β5 tail [1]; [3]): 0.4077
- Binding to wild-type integrin β5 tail, normalized to cat-WT (integrin β5 tail [1]; Figure 4G, replicate 2): 0.4295
- Binding to wild-type integrin β5 tail, normalized to cat-WT (integrin β5 tail [1]; Figure 4G, replicate 3): 0.5407
- Binding to wild-type integrin β5 tail, normalized to cat-WT (integrin β5 tail [1]; Figure 4G, replicate 4): 0.2568
- Binding to wild-type integrin β5 tail, normalized to cat-WT (integrin β5 tail [1]; Figure 4G, replicate 5): 0.7435
- Binding to wild-type integrin β5 tail, normalized to cat-WT (integrin β5 tail [1]; Figure 4G, replicate 6): 0.2789
- Binding to wild-type integrin β5 tail, normalized to cat-WT (integrin β5 tail [1]; Figure 4G, replicate 7): 0.1085
- Binding to wild-type integrin β5 tail, normalized to FL-WT (integrin β5 tail [2]; Figure 4H, experiment row r5): 0.029
- Binding to wild-type integrin β5 tail, normalized to FL-WT (integrin β5 tail [2]; Figure 4H, experiment row r6): 0.62
- Binding to wild-type integrin β5 tail, normalized to FL-WT (integrin β5 tail [2]; Figure 4H, experiment row r7): 0.561
- Binding to wild-type integrin β5 tail, normalized to FL-WT (integrin β5 tail [2]; Figure 4H, experiment row r8): 0.262
- Binding to wild-type integrin β5 tail, normalized to FL-WT (integrin β5 tail [2]; Figure 4H, experiment row r9): 0.4
- Binding to wild-type integrin β5 tail, normalized to FL-WT (integrin β5 tail [2]; Figure 4H, experiment row r17): 0.03
- Binding to wild-type integrin β5 tail, normalized to FL-WT (integrin β5 tail [2]; Figure 4H, experiment row r19): 0.1
